Patent US6753317
Non-standard residues stand in square brackets, D forms with d. *: point of attachment. Dmt = Cc1cc(O)cc(C)c1C[C@H](N)C(=O)O; Tic = O=C(O)[C@@H]1Cc2ccccc2CN1; NHNH2 = NN*

Experiments:
[1] = target: δ-opioid receptor (rat brain synaptosomal preparation) (rat) (UniProt P33533); assay: radioligand competition vs [^3H]N,N(CH3)2-Dmt-Tic-OH, rat brain synaptosomes
[2] = target: δ-opioid receptor (rat brain synaptosomal preparation) (rat) (UniProt P33533); assay: radioligand competition vs [^3H]DPDPE, rat brain synaptosomes
[3] = target: µ-opioid receptor (rat brain synaptosomal preparation) (rat) (UniProt P33535); assay: radioligand competition vs [^3H]DAGO, rat brain synaptosomes
µ-opioid receptor (rat brain synaptosomal preparation) (rat), sequence (P33535 whole entry): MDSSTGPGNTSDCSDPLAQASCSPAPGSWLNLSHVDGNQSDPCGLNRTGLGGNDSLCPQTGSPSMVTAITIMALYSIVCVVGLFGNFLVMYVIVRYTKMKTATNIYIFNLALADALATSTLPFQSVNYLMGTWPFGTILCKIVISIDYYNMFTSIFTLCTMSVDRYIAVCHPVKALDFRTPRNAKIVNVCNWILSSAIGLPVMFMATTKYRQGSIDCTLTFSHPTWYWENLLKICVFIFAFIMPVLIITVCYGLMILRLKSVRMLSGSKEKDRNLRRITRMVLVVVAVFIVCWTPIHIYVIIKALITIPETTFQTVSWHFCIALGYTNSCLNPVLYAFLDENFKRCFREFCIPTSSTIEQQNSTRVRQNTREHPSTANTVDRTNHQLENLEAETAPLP

[4] = target: δ-opioid receptor of the mouse vas deferens (MVD) (mouse) (UniProt P32300); assay: cell-based or functional assay
δ-opioid receptor of the mouse vas deferens (MVD) (mouse), sequence (P32300 whole entry, stated change not applied): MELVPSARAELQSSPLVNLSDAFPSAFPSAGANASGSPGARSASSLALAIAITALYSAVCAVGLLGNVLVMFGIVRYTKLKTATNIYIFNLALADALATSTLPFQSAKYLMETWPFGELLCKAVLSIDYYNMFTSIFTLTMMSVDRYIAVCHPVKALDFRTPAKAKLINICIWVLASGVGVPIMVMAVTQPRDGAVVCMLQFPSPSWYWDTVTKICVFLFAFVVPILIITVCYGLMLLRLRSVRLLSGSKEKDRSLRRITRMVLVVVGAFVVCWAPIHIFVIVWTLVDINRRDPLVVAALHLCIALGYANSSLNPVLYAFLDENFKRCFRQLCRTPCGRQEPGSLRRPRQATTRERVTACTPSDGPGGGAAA

δ-opioid receptor (rat brain synaptosomal preparation) (rat), sequence (P33533 whole entry, stated change not applied): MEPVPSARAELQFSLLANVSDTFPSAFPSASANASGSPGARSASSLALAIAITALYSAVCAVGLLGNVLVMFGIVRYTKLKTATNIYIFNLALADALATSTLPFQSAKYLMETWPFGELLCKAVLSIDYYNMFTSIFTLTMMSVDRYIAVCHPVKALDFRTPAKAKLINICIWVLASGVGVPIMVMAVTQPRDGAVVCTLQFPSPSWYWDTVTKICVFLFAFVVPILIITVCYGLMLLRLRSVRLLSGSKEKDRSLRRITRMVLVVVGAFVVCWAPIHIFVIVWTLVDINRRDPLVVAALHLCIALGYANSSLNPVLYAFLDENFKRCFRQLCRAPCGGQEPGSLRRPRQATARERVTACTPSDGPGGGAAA

Substance	Ki [1] [nM]	Ki [2] [nM]	Ki [3] [nM]	MVD pA2 [4]	fold rise of µ affinity relative to N,N(Me)2-Dmt-Tic-OH [3] [fold]
H-(R,S)Dmt-Tic-OH (peptide)	0.8	0.46	1160		
[des-NH2-α-pyrrole-1-yl]-Dmt-Tic-OH (peptide)	9.94	16.6	5590		
H-[Dmt]-[Tic]-NHMe	1.24	0.47	85.5		
H-Dmt-Tic-Ala-OH (peptide)	0.29	0.29	813		
H-Dmt-Tic-NH-1-adamantane (peptide)	1.01	0.26	0.76		
H-Dmt-Tic-Ala-NH-1-adamantane (peptide)	0.04	0.073	2.52		
H-[Dmt]-[Tic]-OH			3320		
H-[Dmt]-[Tic]-NHNH2	42	0.99	85.1		
H-[Dmt]-[Tic]-NH2	2.13	1.22			
[des-NH2-α-pyrrolidine-1-yl]-Dmt-Tic-OH (peptide)	1.42	1.62	814		
H-Dmt-βTic-OH (peptide)	0.71	0.85	418		
N,N(Et)2-DMT-Tic-OH (peptide)		0.92			
H-[Dmt]-[Tic]-OMe	500	9.64	423		
[des-NH2-α-piperidine-1-yl]-Dmt-Tic-OH (peptide)	0.74	1.18	2040		
H-Dmt-Tic-NH-tetrazole-5-yl (peptide)	9.75	0.7	37		
N,N(Me)2-Dmt-Tic-NHMe (peptide)	0.28	0.54	359		
H-Dmt-Tic-Ala-NHMe (peptide)	0.12	0.058	5.75		
H-Dmt-Tic-Ala-NH2 (peptide)	0.69	0.24	47		

More lines, now with the values ahead:

Ki [1] [nM]	Ki [2] [nM]	Ki [3] [nM]	MVD pA2 [4]	fold rise of µ affinity relative to N,N(Me)2-Dmt-Tic-OH [3] [fold]	Substance
70.3	24.5	0.26			H-Dmt-D-Tic-NH-1-adamantane (peptide)
0.08	0.066	4.03			H-Dmt-Tic-Ala-NH-tBu (peptide)
	9.58		5.43		cyclo (DMT-Tic) (peptide)
0.07	0.12	2440			N,N(Me)2-Dmt-Tic-OH (peptide)
0.11	0.61	226			N,N(Me)2-Dmt-Tic-NH-tBu (peptide)
0.93	0.43	5.96			H-Dmt-Tic-NH-tBu (peptide)
0.14	0.23	11.3			H-Dmt-Tic-Ala-OMe (peptide)
475	11.2	1740			H-αDmt-Tic-OH (peptide)
0.12	0.16	1.12		2200	N,N(Me)2-Dmt-Tic-NH-1-adamantane (peptide)
120	140	50.5			N,N(Me)2-Dmt-D-Tic-NH-1-adamantane (peptide)
